Data reported in US20260166158A1, “HSP90-BINDING CONJUGATES AND FORMULATIONS THEREOF” (Fusion Pharmaceuticals Inc., priority 2019, published 2026).

How the values were obtained:
[1] = test system: NCI-H460 tumor-bearing mice (lung cancer); assay: Biodistribution: lutetium accumulation in tumor, plasma and healthy tissues by ICP-MS; format: in vivo; details: for T/K (Tumor/Kidney ratio) / T/L (Tumor/Liver ratio) / T/P (Tumor/Plasma ratio) / Kidney uptake, % ID/g 24 h / Liver uptake, % ID/g 24 h / Plasma, % ID/g 24 h / Tumor uptake, % ID/g, 24 h / % ID/g uptake, H460 tumor, 24 h / % ID/g uptake, Kidney, 24 h / % ID/g uptake, Liver, 24 h / % ID/g uptake, Plasma, 24 h: 24 h; for Kidney uptake, % ID/g 24 h / Liver uptake, % ID/g 24 h / Plasma, % ID/g 24 h / Tumor uptake, % ID/g, 24 h: second table; for % ID/g uptake, H460 tumor, 24 h / % ID/g uptake, H460 tumor, 72 h / % ID/g uptake, Kidney, 24 h / % ID/g uptake, Kidney, 72 h / % ID/g uptake, Liver, 24 h / % ID/g uptake, Liver, 72 h / % ID/g uptake, Plasma, 24 h / % ID/g uptake, Plasma, 72 h: 0.5 mg/kg lutetium conjugate
Experimental: Lutetium accumulation was measured in tumor, plasma and healthy tissues of NCI-H460 tumor-bearing mice (lung cancer). NCJ-H460 tumor bearing mice were dosed with 0.5 mg/kg of lutetium conjugates. At the time points indicated, mice were sacrificed and tumor, liver, kidneys and plasma were taken. All tissues were analyzed for lutetium content by ICP-MS, and lutetium uptake in % ID/g determined by the following equation: […]
Biodistribution at 24 h and Tumor/Kidney ratio (T/K), Tumor/Liver ratio (T/L), Tumor/Plasma ratio (T/P) are give in the table below.

NCI-H460 tumor model [2] = assay: Distribution of cold (Lu175) analog of CMP6; format: in vivo
Experimental: In yet another study with the NCI-H460 tumor model, the distribution of the cold analog of CMP6 was measured at 24 hours and 72 hours.

NCI-H460 tumor model [3] = assay: Distribution of radioactive (177Lu) versus non-radioactive (175Lu) analog of CMP51; format: in vivo; details: radioactive analog comprising Lu177
Experimental: In another study with the NCI-H460 tumor model, the distribution of the radioactive (hot) analog of CMP51 (177Lu) and the distribution of the non-radioactive (cold) analog of CMP51 (175Lu) at 24 hours and 72 hours were tested and compared.

[4] = molecular target: T1, purified N-terminal HSP90a (Homo sapiens, UniProt P07900); assay: HSP90 binding, competitive fluorescence polarization assay
T1 construct: 350 ng of N-terminal HSP90a
Experimental: HSP90 binding was determined by a competitive fluorescence polarization assay with purified N-terminal HSP90a. A series of dilutions of the test compounds were prepared with 10% DMSO in assay buffer and 10 μl of the dilution was added to a 100 μl reaction so that the final concentration of DMSO is 1% in all reactions. The reactions were conducted at room temperature for 3 hours in a 100 μl mixture containing assay buffer, 5 nM FITC Labeled Geldanamycin, 350 ng of N-terminal HSP90a, and the test compound. Fluorescence intensity was measured at an excitation of 485 nm and an emission of 530 nm using a Tecan Infinite M1000 microplate reader. Fluorescence intensity is converted to fluorescence polarization using the Tecan Magellan6 software. The fluorescence polarization data were analyzed using the computer software, Graphpad Prism. The fluorescence polarization (FPt) in absence of the compound in each data set was defined as 100% activity. In the absence of protein and the compound, the value of fluorescent polarization (FPb) in each data set was defined as 0% activity. The percent activity in the presence of the compound was calculated according to the following equation: % activity=(FP−FPb)/(FPt−FPb)×100%, where FP=the fluorescence polarization in the presence of the compound. HSP90 binding data are below.

[5] = cold analog, 24 hours and 72 hours, FIG. 2

Compound	% ID/g uptake, H460 tumor, 24 h [1]	% ID/g uptake, H460 tumor, 72 h [1]	% ID/g uptake, Kidney, 24 h [1]	% ID/g uptake, Kidney, 72 h [1]	% ID/g uptake, Liver, 24 h [1]	% ID/g uptake, Liver, 72 h [1]	% ID/g uptake, Plasma, 24 h [1]	% ID/g uptake, Plasma, 72 h [1]	Kd [4]	further results
CCNC(=O)c1nnc(-c2cc(C(C)C)c(O)cc2O)n1-c1ccc(OC2CCN(C(=O)CCOCCOCCOCCOCCNC(=O)[C@H](CCCCNC(=O)CCCc3ccc(I)cc3)NC(=O)CN3CCN4CCN5CCN(CC3)CC(=O)[O][Lu]([O]C(=O)C4)[O]C(=O)C5)CC2)cc1 [CMP6]	–	–	–	–	–	–	–	–	–	T/K (Tumor/Kidney ratio) [1]: 5.48; T/L (Tumor/Liver ratio) [1]: 4.98; T/P (Tumor/Plasma ratio) [1]: 1.98; Kidney uptake, % ID/g 24 h [1]: 0.62 % ID/g; Liver uptake, % ID/g 24 h [1]: 0.68 % ID/g; Plasma, % ID/g 24 h [1]: 1.72 % ID/g; Tumor uptake, % ID/g, 24 h [1]: 3.40 % ID/g; kidney uptake and retention (NCI-H460 tumor model [2]; [5]): significantly reduced kidney uptake and retention; liver uptake (NCI-H460 tumor model [2]; [5]): significantly reduced; tumor to liver and tumor to kidney ratios at 72 hours (NCI-H460 tumor model [2]; cold analog, 72 hours versus 24 hours): enhanced at 72 hours; tumor to liver and tumor to kidney ratios (NCI-H460 tumor model [2]; cold analog, FIG. 2): High tumor to liver and tumor to kidney ratios; tumor retention selectivity (FIG. 2 legend) (NCI-H460 tumor model [2]; non-radioactive analog comprising Lu175): selective tumor retention over kidney and liver
CCNC(=O)c1nnc(-c2cc(C(C)C)c(O)cc2O)n1-c1ccc(CN2CCN(C(=O)CCNC(=O)[C@@H](CCC(=O)O)NC(=O)[C@@H](CCC(=O)O)NC(=O)[C@@H](CCC(=O)O)NC(=O)COCCOCCNC(=O)CCCCn3cc(CN(CCCNC(=O)CC[C@H](C(=O)O)N4CCN5CCN6CC(=O)[O][Lu]([O]C(=O)C5)[C]5(C6)OC(=O)CN5CC4)C(=O)CCCNC(=O)CCCc4ccc(I)cc4)nn3)CC2)cc1 (some centres unmarked) [CMP51]	–	–	–	–	–	–	–	–	–	T/K (Tumor/Kidney ratio) [1]: 0.7; T/L (Tumor/Liver ratio) [1]: 5.6; T/P (Tumor/Plasma ratio) [1]: 2.5; Kidney uptake, % ID/g 24 h [1]: 10.37 % ID/g; Liver uptake, % ID/g 24 h [1]: 1.35 % ID/g; Plasma, % ID/g 24 h [1]: 3.01 % ID/g; Tumor uptake, % ID/g, 24 h [1]: 7.54 % ID/g; tumor exposure selectivity (FIG. 1 legend) (NCI-H460 tumor model [3]): selective tumor exposure with the exception of kidney
CCNC(=O)c1nnc(-c2cc(C(C)C)c(O)cc2O)n1-c1ccc(CN2CCN(C(=O)CCNC(=O)[C@@H](CCC(=O)N3CCN(Cc4ccc(-n5c(C(=O)NCC)nnc5-c5cc(C(C)C)c(O)cc5O)cc4)CC3)NC(=O)CCNC(=O)[C@@H](CCC(=O)O)NC(=O)[C@@H](CCC(=O)O)NC(=O)[C@@H](CCC(=O)O)NC(=O)COCCOCCNC(=O)CC[C@H](C(=O)O)N3CCN4CCN5CCN(CC3)CC(=O)[O][Lu]([O]C(=O)C5)[O]C(=O)C4)CC2)cc1 [T4]	3.06 % ID/g	2.19 % ID/g	4.86 % ID/g	2.28 % ID/g	0.59 % ID/g	0.62 % ID/g	0.21 % ID/g	0.09 % ID/g	0.45 nM	–
CCNC(=O)c1nnc(-c2cc(C(C)C)c(O)cc2O)n1-c1ccc(CN2CCN(C(=O)CCNC(=O)[C@@H](CCC(=O)N3CCN(Cc4ccc(-n5c(C(=O)NCC)nnc5-c5cc(C(C)C)c(O)cc5O)cc4)CC3)NC(=O)CCNC(=O)[C@@H](CCC(=O)O)NC(=O)[C@@H](CCC(=O)O)NC(=O)[C@@H](CCC(=O)O)NC(=O)COCCOCCNC(=O)[C@H](Cc3ccccc3)NC(=O)CNC(=O)CNC(=O)CC[C@H](C(=O)O)N3CCN4CCN5CCN(CC3)CC(=O)[O][Lu]([O]C(=O)C5)[O]C(=O)C4)CC2)cc1 [T8]	1.00 % ID/g	0.44 % ID/g	3.24 % ID/g	0.84 % ID/g	0.30 % ID/g	0.07 % ID/g	0.17 % ID/g	0.00 % ID/g	0.48 nM	–
CCNC(=O)c1nnc(-c2cc(C(C)C)c(O)cc2O)n1-c1ccc(CN2CCN(C(=O)CCNC(=O)[C@@H](CCC(=O)N3CCN(Cc4ccc(-n5c(C(=O)NCC)nnc5-c5cc(C(C)C)c(O)cc5O)cc4)CC3)NC(=O)CCNC(=O)[C@@H](CCC(=O)O)NC(=O)[C@@H](CCC(=O)O)NC(=O)[C@@H](CCC(=O)O)NC(=O)COCCOCCNC(=O)CNC(=O)[C@H](CCCCN)NC(=O)CNC(=O)CC[C@H](C(=O)O)N3CCN4CCN5CCN(CC3)CC(=O)[O][Lu]([O]C(=O)C5)[O]C(=O)C4)CC2)cc1 [T9]	2.43 % ID/g	0.93 % ID/g	8.15 % ID/g	2.78 % ID/g	0.62 % ID/g	0.25 % ID/g	26.50 % ID/g	1.53 % ID/g	0.47 nM	–
CCNC(=O)c1nnc(-c2cc(C(C)C)c(O)cc2O)n1-c1ccc(OC2CCN(C(=O)CCNC(=O)[C@@H](CCC(=O)N3CCC(Oc4ccc(-n5c(C(=O)NCC)nnc5-c5cc(C(C)C)c(O)cc5O)cc4)CC3)NC(=O)CC[C@H](C(=O)O)N3CCN4CCN5CCN(CC3)CC(=O)[O][Lu]([O]C(=O)C5)[O]C(=O)C4)CC2)cc1 [T6]	7.00 % ID/g	4.52 % ID/g	6.77 % ID/g	2.57 % ID/g	10.70 % ID/g	8.90 % ID/g	1.65 % ID/g	1.89 % ID/g	0.45 nM	–
CCNC(=O)c1nnc(-c2cc(C(C)C)c(O)cc2O)n1-c1ccc2c(ccn2CCC2CCN(C(=O)CC[C@H](NC(=O)CC[C@H](C(=O)O)N3CCN4CCN5CCN(CC3)CC(=O)[O][Lu]([O]C(=O)C5)[O]C(=O)C4)C(=O)N3CCC(CCn4ccc5cc(-n6c(C(=O)NCC)nnc6-c6cc(C(C)C)c(O)cc6O)ccc54)CC3)CC2)c1 [T10]	3.91 % ID/g	3.18 % ID/g	14.70 % ID/g	7.74 % ID/g	7.28 % ID/g	4.34 % ID/g	2.29 % ID/g	0.37 % ID/g	0.77 nM	–
